Measured values taken from the supplement of paper PMC10567573.

B1: TOR1AIP2 (parent)
chain: HHVADAYTSSQKVSPIQIDGAGRT
B2: ZBTB22 (parent)
chain: RPFDCPVCNKKFKMKHHLTEHMKT

Variants of: B1
Experiment: protein stability index of a GFP-peptide fusion (GPS, HEK-293T) (PSI 1-6); higher = more stable
Conditions: c terminus: a fixed tail appended
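Further: lentivirally expressed fusions sorted by FACS into six bins by GFP to DsRed ratio, PSI derived from sequencing read proportions per bin multiplied by bin number.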

Protein stability index of substitutions, site by site:
Y7: D 4.67 | P 4.91 | Q 4.5 | T 4.98 | F 2.73 | L 4.55 | R 4.43 | N 4.89 | G 4.6 | V 4.62 | M 4.7 | I 4.75 | E 4.97 | A 5.04 | K 4.65 | S 4.87 | C 4.19 | H 4.84 | W 2.12
Q11: M 3.15 | L 3.27 | F 2.65 | Y 2.96 | G 3.66 | K 3.56 | D 4.26 | R 2.95 | P 3.74 | S 3.44 | C 3.06 | T 3.6 | H 3 | I 3 | N 3.29 | W 2.21 | E 3.97 | V 2.89 | A 3.23
H2: L 1.86 | V 1.99 | Y 3.4 | N 4.27 | E 4.74 | F 3.77 | M 2.81 | W 2.96 | D 4.75 | C 3.5 | K 4.32 | I 2.08 | S 4.08 | G 4.15 | Q 2.51 | A 4.01 | P 3.87 | R 3.67 | T 3.81
A4: Y 4.04 | I 3.01 | S 3.84 | K 3.86 | L 3.99 | R 3.95 | V 3.39 | N 4.17 | P 2.34 | H 3.43 | E 4.43 | M 4.01 | W 3.57 | G 4.25 | F 3.42 | T 2.27 | Q 3.67 | C 2.84 | D 4.76
D5: E 2.73 | W 4.17 | R 3.6 | C 2.46 | V 2.7 | N 3.33 | A 2.63 | G 3.97 | S 2.72 | P 3.54 | M 2.48 | T 3.68 | I 2.5 | L 2.44 | F 2.24 | Y 2.35 | Q 2.93 | K 3.19 | H 2.38
V3: T 3.1 | C 1.75 | Y 1.51 | W 2.42 | Q 2.63 | P 4.2 | E 3.12 | D 2.96 | I 4.2 | N 2.04 | F 2.34 | R 2.95 | G 2.73 | A 1.62 | S 2.46 | M 2.92 | H 2.82 | L 3.77 | K 3.19
A6: V 3.48 | T 4.02 | H 3.85 | K 4.03 | S 4.14 | G 4.39 | I 3.67 | N 4.26 | E 4.77 | Y 3.32 | L 3.2 | F 2.69 | W 2.19 | R 3.95 | Q 4.32 | P 4.3 | D 4.19 | M 3.46 | C 3.98
K12: D 3.88 | A 3.85 | T 3.59 | L 3.24 | V 3.47 | C 3.06 | R 3.34 | S 3.77 | H 3.54 | Q 3.86 | N 3.67 | F 2.47 | M 3.4 | P 4.16 | G 3.48 | E 3.84 | I 3.13
S9: D 4.04 | V 1.62 | Q 3.15 | K 4.43 | I 2.42 | N 3.54 | A 2.91 | E 3.11 | P 2.58 | C 1.95 | H 3.77 | M 3.52 | L 3.28 | R 3.75 | W 2.65 | T 2.82 | F 2.9 | Y 3.78 | G 3.79
S10: P 3.87 | Q 3.24 | T 3.28 | E 3.98 | M 2.93 | A 3 | V 2.9 | Y 2.94 | D 4.33 | R 2.64 | C 2.96 | G 3.81 | L 3.07 | H 3.17 | W 2.37 | K 3.46 | I 2.72 | F 2.95 | N 3.21
H1: M 3.93 | D 4.91 | A 4.54 | C 3.67 | Q 4.15 | S 4.3 | K 3.94 | N 4.53 | V 3.86 | G 4.43 | L 3.81 | E 4.66 | I 3.14 | W 3.68 | T 3.94 | P 3.85 | R 4.33 | Y 3.09 | F 2.69
T8: S 3.69 | K 3.49 | Q 3.85 | I 2.82 | D 4.66 | H 4.14 | C 2.78 | F 3.27 | A 4.09 | Y 3.45 | W 2.86 | V 3.3 | G 3.87 | L 4.14 | P 4.38 | E 4.38 | R 3.49 | N 3.88 | M 3.89

Variants of: B2
Experiment: as above
Conditions: c terminus: a fixed tail appended

Protein stability index, by site and new letter:
F3: V 2.85 | L 2.35 | A 2.58
K11: D 2.55 | S 3.12 | Y 2.17 | P 2.34
K23: D 2.61 | T 2.38 | Q 3.34 | E 2.39
E20: G 2.73 | T 2.31 | A 2.78 | N 3 | L 1.83 | C 2.83 | Q 2.8
M22: R 2.48 | Q 2.71 | E 3 | Y 2.72 | K 2.92 | A 2.48 | W 2.43
F12: Y 2.4 | P 2.5 | N 1.96 | I 2.49
K13: C 4.49 | P 2.74
M14: D 3.75 | N 3.89 | F 2.84 | V 2.58 | K 2.93 | R 3.14 | C 3.9 | I 2.35 | Q 3.17
K10: R 2.37 | E 3.01 | F 2.34
T19: L 2.8 | S 2.35
T24: E 3.21 | N 2.54 | R 2.84 | W 2.22 | C 3.07 | Q 2.53 | M 2.5 | K 2.43
C8: R 3.08 | G 2.8 | L 2.92
P2: T 3.84 | F 2.72 | G 2.46 | S 3.39 | D 3.24
P6: G 2.1 | A 2.65 | Y 2.25 | R 2.12 | M 2.03 | T 2.45
L18: R 2.89 | H 3.08 | W 2.59 | K 2.78 | A 2.93 | T 2.67
V7: L 2.53 | D 2.82 | S 2.77
C5: A 2.51 | D 3.21 | Y 2.93 | G 3.3 | F 2.66
H21: Y 2.2 | V 2.44
D4: P 1.71 | S 3.5 | R 3.1 | H 2.87 | T 3.43
R1: V 2.74 | P 3.17 | W 2.09
K15: N 2.12 | D 2.85 | Q 2.26 | P 2.67 | F 2.39 | E 3.73
H17: S 2.42 | P 2.19 | M 2.42 | Y 1.95
H16: L 2.56 | F 1.9 | C 2.91 | D 2.56 | A 2.59 | N 2.71
N9: L 2.83
